For assay [1], the target named is MARK1 kinase–UBA domain fragment (residues 45–371), hexahistidine tag intact (human, UniProt Q9P0L2 45-371). Nature of the assay: SPR. Background: In SPR one partner is held on a chip, and binding of the other changes the refractive index at the surface.
For assay [2], the target named is MARK1 kinase–UBA domain fragment (residues 45–371), tag-cleaved (human, UniProt Q9P0L2 45-371). Briefly: SAXS.
MARK1 kinase–UBA domain fragment (residues 45–371), tag-cleaved, sequence (Q9P0L2 45-371): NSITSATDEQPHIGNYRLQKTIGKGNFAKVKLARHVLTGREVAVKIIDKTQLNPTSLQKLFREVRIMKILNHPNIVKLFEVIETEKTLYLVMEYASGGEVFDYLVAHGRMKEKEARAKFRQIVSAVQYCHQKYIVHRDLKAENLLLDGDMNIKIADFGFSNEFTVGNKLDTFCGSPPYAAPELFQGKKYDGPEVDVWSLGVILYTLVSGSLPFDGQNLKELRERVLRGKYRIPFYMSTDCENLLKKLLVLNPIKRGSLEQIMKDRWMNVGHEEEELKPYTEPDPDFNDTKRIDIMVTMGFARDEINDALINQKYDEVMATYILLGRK

MARK1 kinase–UBA domain fragment (residues 45–371), hexahistidine tag intact, sequence (Q9P0L2 45-371): as above

B1: MARK1 KA1 domain (residues 683–795) (domain or fragment)
chain: not shown
What is called Kd is the free concentration of one partner at which half of the binding sites on the other are occupied at equilibrium, for simple one-to-one binding. High values mean weaker binding, low ones tighter binding. The stoichiometry N is the number of molecules, sites or subunits per partner or assembly. The molecule B1 registered a Kd in assay [1] of 73 µM. Besides, the “stoichiometry N” value in assay [2] is 1.

Source of the values: paper PMC5317272 (The Biochemical journal, 2016).
